According to patent publication US20230295310A1 (ABCELLERA BIOLOGICS, published 2023):
Changes are numbered by the printed parent chain.

B1: GOMP001_bsAb_049 (bispecific antibody, human IgG1, kappa, L234A L235A)
heavy 1: QVQLVQSGAEVKKPGASVKVSCKASGYTFTSHWMHWVRKAPGQGLEWIGEFNPSNGRTNYNEEFKSKATMTVDTSTNTAYMELSSLRSEDTAVYYCASRDYDYDGRYFDYWGQGTLVTVSSASTKGPSVFPLAPSSKSTSGGTAALGCLVADYFPEPVTVSWNSGALTSGVHTFPAVLQSSGLYSLSSVVTVPSSSLGTQTYICNVNHKPSNTKVDEKVEPKSCDKTHTCPPCPAPEAAGGPSVFLFPPKPKDTLMISRTPEVTCVVVDVSHEDPEVKFNWYVDGVEVHNAKTKPREEQYNSTYRVVSVLTVLHQDWLNGKEYKCKVSNKALPAPIEKTISKAKGQPREPQVYTLPPSREEMTDNQVSLTCLVKGFYPSDIAVEWESNGQPENNYKTTPPVLMSDGSFFLASKLTVDKSRWQQGNVFSCSVMHEALHNHYTQKSLSLSPG
light 1: RIQMTQSPSSLSASVGDRVTITCSASSSVTYMYWYQDKPGKAPKLLIYDTSNLASGVPSRFSGSGSGTDYTFTISSLQPEDIATYYCQQWSSHIFTFGQGTKVEIKRTVAAPSVFIFPPSDKQLKSGTARVVCLLNNFYPREAKVQWKVDNALQSGNSQESVTEQDSKDSTYSLSSTLTLSKADYEKHKVYACEVTHQGLSSPVTKSFNRGEC
heavy 2: QVQLVESGGGVVQPGRSLRLSCAASGFTFSTYGMHWVRYAPGKGLEWVAVIWYDGSHKYYADRVKGRFTISRDNSKKTLYLQMNSLRAEDTGIYYCARTGISGNMSYFYFDHWGRGILVTVSSASTKGPSVFPLAPSSKSTSGGTAALGCLVKDYFPEPVTVSWNSGALTSGVHTFPAVLQSSGLYSLSSVVTVPSSSLGTQTYICNVNHKPSNTKVDKKVEPKSCDKTHTCPPCPAPEAAGGPSVFLFPPKPKDTLMISRTPEVTCVVVDVSHEDPEVKFNWYVDGVEVHNAKTKPREEQYNSTYRVVSVLTVLHQDWLNGKEYKCKVSNKALPAPIEKTISKAKGQPRRPRVYTLPPSREEMTKNQVSLVCLVKGFYPSDIAVEWESNGQPENNYKTTPPVLDSDGSFFLYSVLTVDKSRWQQGNVFSCSVMHEALHNHYTQKSLSLSPG
light 2: not shown
B2: GOMP001_bsAb_055 (bispecific antibody, human IgG1, kappa, L234A L235A)
heavy 1: B1 heavy 1
light 1: B1 light 1
heavy 2: EVNLVESGGGLVQPGRSLRLSCAASGFTFDDYTMHWVRYVPGKGLEWVSNISWNSGSLGYADRVKGRFTISRDNAKDSLYLQMNSLRVEDTALYYCAKDSSGYGHYNSYYMDVWGRGTTVTVSSASTKGPSVFPLAPSSKSTSGGTAALGCLVKDYFPEPVTVSWNSGALTSGVHTFPAVLQSSGLYSLSSVVTVPSSSLGTQTYICNVNHKPSNTKVDKKVEPKSCDKTHTCPPCPAPEAAGGPSVFLFPPKPKDTLMISRTPEVTCVVVDVSHEDPEVKFNWYVDGVEVHNAKTKPREEQYNSTYRVVSVLTVLHQDWLNGKEYKCKVSNKALPAPIEKTISKAKGQPRRPRVYTLPPSREEMTKNQVSLVCLVKGFYPSDIAVEWESNGQPENNYKTTPPVLDSDGSFFLYSVLTVDKSRWQQGNVFSCSVMHEALHNHYTQKSLSLSPG
light 2: DIQMTQSPSSLSASVGDRVTITCRASQSIRNYLNWYQRKPGDAPKVLIYSASSLQSGVPSRFSGSGSGTDFTLTISSLQPEDFASFYCQQTYSTPITFGQGTRLEIKRTVAAPSVFIFPPSDEQLKSGTASVVCLLNNFYPREAKVQWKVDNALQSGNSQESVTEQDSKDSTYSLSSTLTLSKADYEKHKVYACEVTHQGLSSPVTKSFNRGEC
B3: GOMP001_bsAb_051 (bispecific antibody, human IgG1, kappa, L234A L235A)
heavy 1: B1 heavy 1
light 1: B1 light 1
heavy 2: QVQLVQSGAEVKKPGASVKVSCKASGYTFTSYYIHWVRYAPGQGLDWMGIINPSGGITGYAQKLQGRVTMTRDTSTTTVYMELSSLRSDDTAVYYCARGVRGNYYYYYMDVWGRGTTVTVSSASTKGPSVFPLAPSSKSTSGGTAALGCLVKDYFPEPVTVSWNSGALTSGVHTFPAVLQSSGLYSLSSVVTVPSSSLGTQTYICNVNHKPSNTKVDKKVEPKSCDKTHTCPPCPAPEAAGGPSVFLFPPKPKDTLMISRTPEVTCVVVDVSHEDPEVKFNWYVDGVEVHNAKTKPREEQYNSTYRVVSVLTVLHQDWLNGKEYKCKVSNKALPAPIEKTISKAKGQPRRPRVYTLPPSREEMTKNQVSLVCLVKGFYPSDIAVEWESNGQPENNYKTTPPVLDSDGSFFLYSVLTVDKSRWQQGNVFSCSVMHEALHNHYTQKSLSLSPG
light 2: EIVLTQSPDFQSVTPKEKVTITCRASQSIGSKLHWYQRKPDDSPKLLIKYASQSFSGVPSRFSGSGSGTDFNLTINSLEAEDAATFYCHQSSGLPYTFGQGTKLEIKRTVAAPSVFIFPPSDEQLKSGTASVVCLLNNFYPREAKVQWKVDNALQSGNSQESVTEQDSKDSTYSLSSTLTLSKADYEKHKVYACEVTHQGLSSPVTKSFNRGEC
B4: GOMP001_bsAb_050 (bispecific antibody, human IgG1, kappa, L234A L235A)
heavy 1: QVQLVESGGGVVQPGRSLRLSCAASGFTFSTYGMHWVRKAPGKGLEWVAVIWYDGSHKYYADEVKGRFTISRDNSKKTLYLQMNSLRAEDTGIYYCARTGISGNMSYFYFDHWGQGILVTVSSASTKGPSVFPLAPSSKSTSGGTAALGCLVADYFPEPVTVSWNSGALTSGVHTFPAVLQSSGLYSLSSVVTVPSSSLGTQTYICNVNHKPSNTKVDEKVEPKSCDKTHTCPPCPAPEAAGGPSVFLFPPKPKDTLMISRTPEVTCVVVDVSHEDPEVKFNWYVDGVEVHNAKTKPREEQYNSTYRVVSVLTVLHQDWLNGKEYKCKVSNKALPAPIEKTISKAKGQPREPQVYTLPPSREEMTDNQVSLTCLVKGFYPSDIAVEWESNGQPENNYKTTPPVLMSDGSFFLASKLTVDKSRWQQGNVFSCSVMHEALHNHYTQKSLSLSPG
light 1: not shown
heavy 2: QVQLVQSGAEVKKPGASVKVSCKASGYTFTSHWMHWVRYAPGQGLEWIGEFNPSNGRTNYNEKFKSKATMTVDTSTNTAYMELSSLRSEDTAVYYCASRDYDYDGRYFDYWGRGTLVTVSSASTKGPSVFPLAPSSKSTSGGTAALGCLVKDYFPEPVTVSWNSGALTSGVHTFPAVLQSSGLYSLSSVVTVPSSSLGTQTYICNVNHKPSNTKVDKKVEPKSCDKTHTCPPCPAPEAAGGPSVFLFPPKPKDTLMISRTPEVTCVVVDVSHEDPEVKFNWYVDGVEVHNAKTKPREEQYNSTYRVVSVLTVLHQDWLNGKEYKCKVSNKALPAPIEKTISKAKGQPRRPRVYTLPPSREEMTKNQVSLVCLVKGFYPSDIAVEWESNGQPENNYKTTPPVLDSDGSFFLYSVLTVDKSRWQQGNVFSCSVMHEALHNHYTQKSLSLSPG
light 2: B1 light 1 with R1D, D37R, K41D, K122E, R130S

Target: EGFR on HeLa cells (UniProt P00533 25-1210, limits assumed)
Assay: cell-based or functional assay

Binder	Max killing % [%]	X… HeLa EC50 [nM]
B1	55.9	
B2	78	0.182
B3	60.2	
B4	57	
